Where a chain is given by its changes, count along the chain named.
T1: rat Alk7-Fc comprising protein (rat, UniProt P70539 26-113)
T1 construct: not shown: Fc portion and any linker of the Alk7-Fc comprising protein are not described
T1 sequence: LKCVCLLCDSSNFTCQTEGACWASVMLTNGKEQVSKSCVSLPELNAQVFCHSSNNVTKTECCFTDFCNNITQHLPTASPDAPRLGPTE

B1: G05 (antibody, V domains shown)
VH: QVQLVQSGAEVKKPGSSVKVSCKASGGTFSGQAISWVRQAPGQGLEWMGGIIPSFGTARYAQKFQGRVTITADESTSTAYMELSSLRSEDTAVYYCARTPYYDSSGYLDVWGQGTMVTVSS
VL: DIQMTQSPSSLSASVGDRVTITCQASHDIDNYLNWYQQKPGKAPKLLIYYASNLKTGVPSRFSGSGSGTDFTFTISSLQPEDIATYYCQQSRASPPTFGGGTKVEIK
notes: also called mAb G05; ALK7 mAb G05
B2: C03 (antibody, V domains shown)
VH: QLQLQESGPGLVKPSETLSLTCTVSGGSISSSAYYWAWIRQPPGKGLEWIGSIYLSGSTTYNPSLKSRVTISVDTSKNQFSLKLSSVTAADTAVYYCARDGRYQSRSPDYYYGMDVWGQGTTVTVSS
VL: EIVLTQSPGTLSLSPGERATLSCKASQSVSSSYLAWYQQKPGQAPRLLIYGAFSRANGIPDRFSGSGSGTDFTLTISRLEPEDFAVYYCQQLVSYPFTFGGGTKVEIK
notes: also called mAb C03; ALK7 mAb C03
B3: J01 (antibody, V domains shown)
VH: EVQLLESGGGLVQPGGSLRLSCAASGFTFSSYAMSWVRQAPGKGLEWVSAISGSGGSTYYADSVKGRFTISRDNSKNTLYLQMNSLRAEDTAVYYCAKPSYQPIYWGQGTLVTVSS
VL: DIQMTQSPSSVSASVGDRVTITCRASQGISSWLAWYQQKPGKAPKLLIYAASSLQSGVPSRFSGSGSGTDFTLTISSLQPEDFATYYCQQAASYPLTFGGGTKVEIK
notes: also called antibody J01
B4: K02 (antibody, V domains shown)
VH: QVQLVQSGAEVKKPGSSVKVSCKASGGTFSSSAIGWVRQAPGQGLEWMGGIWPIFGTALYAQKFQGRVTITADESTSTAYMELSSLRSEDTAVYYCARDPREYIHVFDIWGQGTMVTVSS
VL: B3 VL with V11L, G28S, W32Y, A34N, A50G, A92Y, Y94F, L96W, T102I
notes: also called mAb K02; KO2
B5: J02 (antibody, V domains shown)
VH: EVQLLESGGGLVQPGGSLRLSCAASGFTFSVYAMSWVRQAPGKGLEWVSAISGSGDSTVYADSVKGRFTISRDNSKNTLYLQMNSLRAEDTAVYYCAKPSYQPIYWGQGTLVTVSS
VL: B3 VL
notes: also called mAb J02; ALK7 mAb J02
B6: L02 (antibody, V domains shown)
VH: QVQLVQSGAEVKKPGASVKVSCKASGYTFAGYNMHWVRQAPGQGLEWVGIINPNSGWTNYAQKFQGRVTMTRDTSVSAAYMELSRLRSDDTAVYYCARDPVGARYEVFDYWGQGTLVTVSS
VL: EIVMTQSPATLSVSPGERATLSCRASQSVSSALAWYQQKPGQAPRLLIYSAFTRASGIPARFSGSGSGTEFTLTISSLQSEDFAVYYCQQAWAFPLTFGGGTKVEIK
notes: also called mAb L02

Tests used:
[1] = biological target: T2, ALK7-Fc comprising protein; assay: SPR (Biacore T100/T200) at 25 °C, antibody captured on FAB chip, ALK7-Fc analyte, 1:1 fit
T2 construct: It is probably the human protein
Procedure: (§1) Experiments were performed using a Biacore T100/T200 biosensor (Biacore/GE Healthcare) at 25 and 37° C. ALK7 antibodies were captured on custom made FAB chip. A concentration series of ALK7-Fc comprising protein was injected over the flow cells at a flow rate of […]. To obtain kinetic rate constants the corrected data were fit to a 1:1 interaction model using BiaEvaluation software (GE Healthcare). The equilibrium binding constant KD was determined by the ratio of binding rate constants kd/ka.

[2] = biological target: T1, rat Alk7-Fc comprising protein; assay: SPR (Biacore T100/T200), antibody captured on FAB chip, Alk7-Fc analyte, 1:1 fit
Procedure: as §1

T2 sequence (Q8NER5 22-113): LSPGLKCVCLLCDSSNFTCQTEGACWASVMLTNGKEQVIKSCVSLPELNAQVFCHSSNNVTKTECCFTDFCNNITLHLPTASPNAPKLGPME

Binder | Kd [1] | koff [1] | kon [1] | koff [2]
B1 | 0.87 nM | 2.59e-05 s⁻¹ | 29900 M⁻¹ s⁻¹ | –
B2 | 0.33 nM | 1.27e-05 s⁻¹ | 38300 M⁻¹ s⁻¹ | –
B3 | – | – | – | 0.000478 s⁻¹
B4 | 12.4 nM | 0.000291 s⁻¹ | 23500 M⁻¹ s⁻¹ | –
B5 | 5.33 nM | 0.000126 s⁻¹ | 23600 M⁻¹ s⁻¹ | –
B6 | 0.44 nM | 1.21e-05 s⁻¹ | 27400 M⁻¹ s⁻¹ | –
